Values quoted from earlier work as cited in patent US6126956A, “Subcutaneous implant” (priority 1998, dated 2000).
Read-outs that look alike come from different tables or passages of the source.

Conditions: coated EVA with hole in one face, or coated hemisphere with exposed cavity

## Insulin
  release kinetics from prior polymer devices: near constant release rates
Listed as insulin
  release kinetics from prior polymer devices: zero order kinetics

## albumin
  release kinetics from prior polymer devices: zero order kinetics
